Reference: patent publication US7947285B2, “Methods for preventing post endoscopic retrograde cholangiopancreatography pancreatitis” (priority 2003, dated 2011)
Where no end group is shown, it is not given here.

Key:
Assay type in all cases: in vivo, human
patients undergoing ERCP [1] = experiment: Pain, nausea and vomiting scores pre and post ERCP (0-10 scale)
Procedure: Incidence of post-ERCP pancreatitis (sPS vs. placebo) was evaluated as the primary efficacy variable in this study. Secondary efficacy variables included incidences of post-ERCP pancreatitis in the following sub-populations: (1) cannulation of CBD; (2) sphincterotomy of CBD; (3) cannulation of pancreatic duct; (4) sphincterotomy of pancreatic duct; (5) stent insertion and removal into CBD; (6) stent insertion and removal into pancreatic duct; (7) stone extraction (basket) from CBD; (8) stone extraction (balloon) from CBD; (9) manometry of CBD; (10) manometry of pancreatic duct; (11) pain scores pre and post ERCP (0-10 scale); (12) nausea scores pre and post ERCP (0-10 scale); (13) vomiting scores pre and post ERCP (0-10 scale); (14) return to baseline activity (pre-ERCP); and (15) return to work.
(§1) Primary and secondary efficacy variables were compared between the treatment groups using the Fisher Exact Test or Cochran-Mantel Haenszel Association Test. Adverse events and vital signs (heart rate, blood pressure) were compared between the treatment groups using the t-test. The clinical assumption on which the power calculation is based was on incidence of post-ERCP pancreatitis among all patients without pancreas divisum of 6%. In order to show a 50% reduction in the rate of post-ERCP pancreatitis with a significance of p=0.05, at a power of 80%, 749 evaluable patients per treatment group (sPS vs. placebo) were needed.
Additional secondary efficacy analyses were performed on post-ERCP pain, nausea, and vomiting using a 0 to 10 digital scale. There were no significant differences between the treatment groups for baseline (pre procedure) pain, nausea and vomiting. There were also no significant differences in these variables post-ERCP although there was a slight numerical trend indicating less nausea for sPS ([…]).

patients undergoing ERCP [2] = experiment: Adverse events
Procedure: (§2) This study evaluated the following safety variables: (1) Adverse events; (2) Vital signs; (3) Serum Amylase (when clinically indicated); and (4) Serum Lipase (when clinically indicated). No drug concentration measurements were assessed in this study.
as §1

patients undergoing ERCP [3] = experiment: Vital signs (systolic and diastolic BP, pulse) pre and post ERCP
Procedure: as §2, §1
Systolic and Diastolic blood pressure and pulse were measured for all patients' pre and post-ERCP procedure.

## synthetic porcine secretin (HSDGTFTSELSRLRDSARLQRLLQGLV-NH2; ends and bridges not checked; UniProt P63298 33-59, looked up) [SPS, synthetic form of porcine secretin, a 27 amino acid gastrointestinal peptide hormone]
Patients undergoing ERCP [1]; N = 485
  Nausea post-ERCP, Mean (SD): 0.9 (2.1) (N = 485)
  Pain Post-ERCP, Mean (SD): 1.8 (3.0) (N = 485)
  Vomiting post-ERCP, Mean (SD): 0.6 (1.9) (N = 485)
Patients undergoing ERCP [1]; baseline, N = 482
  Vomiting pre-ERCP, Mean (SD): 0.1 (0.8) (N = 482)
Patients undergoing ERCP [1]; baseline, N = 483
  Nausea Pre-ERCP, Mean (SD): 0.6 (1.7) (N = 483)
  Pain Pre-ERCP, Mean (SD): 1.4 (0.6) (N = 483)
Patients undergoing ERCP [1]; pre to post ERCP, N = 479, p 0.0776
  Change in Vomiting, Mean (SD): 0.5 (2.0) (N = 479)
Patients undergoing ERCP [1]; pre to post ERCP, N = 480, p 0.0284
  Change in Nausea, Mean (SD): 0.3 (2.5) (N = 480)
Patients undergoing ERCP [1]; pre to post ERCP, N = 480, p 0.0668
  Change in Pain, Mean (SD): 0.4 (3.4) (N = 480)
Patients undergoing ERCP [2]; N = 488
  Patients with AE related to study drug (%): 0.2%
  Patients with AE related to study drug: number: 1
  Patients with serious AE (%): 0 (0) %
  Patients with serious AE: number: 0 (0)
  Patients with severe AE (%): 0.2%
  Patients with severe AE: number: 1
  Patients with unknown severity to AE (%): 0.2%
  Patients with unknown severity to AE: number: 1
  Total No. of AEs related to study drug: 1
  Total No. of AEs related to study drug (%): 0.2%
  Total No. of serious Aes: 0 (0)
  Total No. of serious Aes (%): 0 (0) %
  Total No. of severe Aes: 2
  Total No. of severe Aes (%): 0.4%
  Total No. of unknown severity to AE: 1
  Total No. of unknown severity to AE (%): 0.2%
Patients undergoing ERCP [2]; N = 488, p 0.0006
  Total No. of Aes: 25
  Total No. of Aes (%): 5.1%
Patients undergoing ERCP [2]; N = 488, p 0.0039
  Total No. of mild/moderate Aes: 21
  Total No. of mild/moderate Aes (%): 4.3%
Patients undergoing ERCP [2]; N = 488, p 0.0052
  Patients with any AE (%): 4.1%
  Patients with any AE: number: 20
Patients undergoing ERCP [2]; N = 488, p 0.0208
  Patients with mild/moderate AE (%): 3.5%
  Patients with mild/moderate AE: number: 17
Patients undergoing ERCP [2]; patient #16, mild AE of an hour duration
  AE judged by the investigator to be related to study drug: drop in blood pressure
Patients undergoing ERCP [2]; patients undergoing ERCP, 16 mcg IV
  overall safety and tolerability: safe and well tolerated
Patients undergoing ERCP [3]; N = 381
  Diastolic BP post-ERCP, Mean (SD): 68.7 (13.4) (N = 381) mm/Hg
  Pulse post-ERCP, Mean (SD): 91.0 (20.4) (N = 381)
  Systolic BP post-ERCP, Mean (SD): 131.0 (23.9) (N = 381) mm/Hg
Patients undergoing ERCP [3]; baseline, N = 397
  Diastolic BP pre-ERCP, Mean (SD): 74.6 (12.8) (N = 397) mm/Hg
  Pulse pre-ERCP, Mean (SD): 81.0 (15.7) (N = 397)
  Systolic BP pre-ERCP, Mean (SD): 142.3 (24.9) (N = 397) mm/Hg
Patients undergoing ERCP [3]; pre to post ERCP, N = 378, p 0.0007
  Change in Systolic BP, Mean (SD): −11.4 (29.2) (N = 378) mm/Hg
Patients undergoing ERCP [3]; pre to post ERCP, N = 378, p 0.1163
  Change in Diastolic BP, Mean (SD): −6.0 (15.3) (N = 378) mm/Hg
Patients undergoing ERCP [3]; pre to post ERCP, N = 378, p 0.1324
  Change in Pulse, Mean (SD): 9.7 (17.7) (N = 378)
